Article PMC4154873, “Delineation of Interfaces on Human Alpha-Defensins Critical for Human Adenovirus and Human Papillomavirus Inhibition” (PLoS Pathogens, 2014)
Where a SMILES comes first, the peptide text is derived from it. Bridges are numbered along the chain shown (N, C = ends).

How the values were obtained:
[1] = target: rPenton, recombinant penton capsomere of human AdV-5 fiber and penton base (human AdV-5); assay: SPR
[2] = target: human AdV-5 fiber (human AdV-5); assay: SEC; analytical size exclusion chromatography, Superdex 200 10/300 GL; data not shown
[3] = target: human AdV-5 fiber (human AdV-5); assay: immunoblot of samples heated or not before SDS-PAGE; fiber samples heated or not for 5 min to 95°C, 4D2 anti-fiber mAb; data not shown
[4] = target: T1, rPenton (fiber and penton base) (Human adenovirus C serotype 5, UniProt P11818+P12538); assay: biochemical; assay type: binding, human AdV-5; conditions: for Kd: SPR Biacore T200, CM5 chip, 2115 RU rPenton, 25°C, HBS EP+ pH 7.4, steady-state fit of RU at 80 sec association, 3 µM to 111 nM, best-fit ± SE
T1 construct: enterokinase recognition site 5′ of the full-length human AdV5 penton base (PB) gene; The baculovirus expression system was used to generate full-length human AdV-5 fiber; enterokinase recognition site (pRSET-A leader) (N); 6xHis followed by Tev protease recognition site (N, cleaved yes); made in house; host or cells: PB: E. coli BL21-CodonPlus (DE3)-RIPL; fiber: HighFive insect cells (baculovirus)
Method: (§1) Experiments were performed on a Biacore T200 system (Biacore, GE Healthcare) at 25°C in HBS EP+ running buffer (9.5 mM HEPES, 142.5 mM NaCl, 2.85 mM EDTA, 0.05% surfactant P20, pH 7.4). The first flow cell on a CM5 sensor chip was reserved to measure background binding, while additional cells were used to immobilize fiber, PB, and rPenton by amine-coupling chemistry. A target density of 2000 resonance units (RU) was selected for rPenton, and for Figure 3D, an equal number of fiber (708 RU) and PB (1292 RU) were also targeted for immobilization. The final RUs immobilized were: 2115 RU rPenton, 889 RU fiber, and 1061 RU PB. Analyte was injected to the flow cells at a rate of 11 µl/min and binding was measured for 3 min, followed by measuring dissociation for 5 min in analyte-free running buffer. The flow cells were regenerated with two 30 s pulses of 10 mM HCl at 11 µl/min separated by 30 s in running buffer. After regeneration, the flow cells were stabilized in running buffer for 2 min before injection of the next analyte. Data analysis was performed using Biacore T200 evaluation software and Prism (version 5.0d).
Affinity (KD) and Bmax were derived by fitting RU values at 80 s post-injection using the Steady State Surface Bound Affinity model in Biacore T200 Evaluation software. Stoichiometry (Sm) of HD5 bound to rPenton at saturation was calculated using the following equation: [drawing 1] (1)

[5] = test system: AdV5.eGFP; assay: Neutralization of AdV5.eGFP pre-bound to A549 cells before addition of HNP1; assay type: cell-based, human AdV-5; conditions: virus pre-bound to cells, versus wild type HNP1
Method: A549 cell monolayers were infected with serial dilutions of AdV5.eGFP in black wall, clear bottom 96-well plates (Perkin-Elmer, San Jose, CA). Total monolayer fluorescence was quantified with a Typhoon 9400 variable mode imager (GE Healthcare, Piscataway, NJ) 24–30 h post-infection. A virus concentration producing 50–80% maximal signal was chosen for inhibition studies.
Serum-free DMEM (SFM) alone or containing increasing concentrations of wild type or mutant HD5 was incubated with purified AdV5.eGFP for 45 min on ice. The mixture (35 µl/well) was added to a confluent monolayer of A549 cells that had been washed twice in SFM. Cells were then incubated at 37°C for 2 h with rocking, washed, and cultured with complete DMEM for 24–30 h. Plates were scanned for eGFP signal as above, and background-subtracted total well fluorescence was quantified using ImageJ software [36]. […] For assays with HNP1, virus alone in SFM was pre-incubated on a confluent monolayer of A549 cells with rocking for 45 min at 4°C. Cells were then washed twice with chilled SFM, and SFM alone or containing increasing concentrations of wild type or mutant HNP1 was added. Cells were incubated for 45 min at 4°C and then shifted to 37°C. After 2 h, cells were washed twice with complete media and incubated a further 24–30 h at 37°C until eGFP signal was quantified as above.

[6] = test system: AdV5.eGFP; conditions: cited from earlier work
[7] = target: human AdV-5 penton base (human AdV-5); assay: SEC; analytical size exclusion chromatography, Superdex 200 10/300 GL; data not shown
[8] = test system: penton base (PB); assay: SPR binding to immobilized penton base; set-up: species or system human AdV-5; conditions: CAR-Ig at 35 nM, 1061 RU PB
Method: as §1

[9] = test system: fiber; assay: SPR binding to immobilized fiber; set-up: species or system human AdV-5; conditions: CAR-Ig at 35 nM, 889 RU fiber
Method: as §1

T1 sequence (P11818 whole entry): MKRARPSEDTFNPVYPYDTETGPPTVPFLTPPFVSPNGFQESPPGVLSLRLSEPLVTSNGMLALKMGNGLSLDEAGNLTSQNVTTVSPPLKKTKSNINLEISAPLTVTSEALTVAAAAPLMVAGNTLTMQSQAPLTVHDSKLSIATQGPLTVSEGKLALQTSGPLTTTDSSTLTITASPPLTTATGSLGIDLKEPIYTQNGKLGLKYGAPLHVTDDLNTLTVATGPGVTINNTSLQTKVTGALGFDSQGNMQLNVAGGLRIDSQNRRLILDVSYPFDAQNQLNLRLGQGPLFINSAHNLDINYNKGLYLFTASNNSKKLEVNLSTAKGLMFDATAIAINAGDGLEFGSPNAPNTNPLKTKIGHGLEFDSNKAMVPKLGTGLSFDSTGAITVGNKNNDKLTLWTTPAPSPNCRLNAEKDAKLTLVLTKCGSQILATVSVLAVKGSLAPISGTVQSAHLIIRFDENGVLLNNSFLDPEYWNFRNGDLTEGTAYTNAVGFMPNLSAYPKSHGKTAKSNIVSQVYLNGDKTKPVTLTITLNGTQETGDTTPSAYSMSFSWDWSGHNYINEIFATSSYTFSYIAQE
T1 sequence (P12538 whole entry): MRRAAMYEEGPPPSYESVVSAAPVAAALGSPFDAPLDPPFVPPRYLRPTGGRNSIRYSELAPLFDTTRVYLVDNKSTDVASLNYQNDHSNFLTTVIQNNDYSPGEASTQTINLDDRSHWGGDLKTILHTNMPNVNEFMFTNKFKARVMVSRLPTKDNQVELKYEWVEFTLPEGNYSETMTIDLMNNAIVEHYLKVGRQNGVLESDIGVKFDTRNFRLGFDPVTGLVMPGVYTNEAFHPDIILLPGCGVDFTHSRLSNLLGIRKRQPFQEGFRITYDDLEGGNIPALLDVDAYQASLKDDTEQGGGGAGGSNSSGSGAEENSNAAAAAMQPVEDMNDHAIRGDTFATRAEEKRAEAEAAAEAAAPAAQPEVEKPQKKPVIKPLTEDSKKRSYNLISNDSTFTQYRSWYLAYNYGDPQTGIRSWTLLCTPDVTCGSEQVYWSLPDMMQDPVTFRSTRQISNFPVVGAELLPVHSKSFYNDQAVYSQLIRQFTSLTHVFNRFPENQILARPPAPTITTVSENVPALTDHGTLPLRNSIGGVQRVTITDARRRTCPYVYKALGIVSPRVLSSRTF
Chain of rPenton, recombinant penton capsomere of human AdV-5 fiber and penton base (human AdV-5) (P11818 whole entry, chain 1 of 2): as the sequence (P11818 whole entry) above
Chain of rPenton, recombinant penton capsomere of human AdV-5 fiber and penton base (human AdV-5) (P12538 whole entry, chain 2 of 2, further chain): as the sequence (P12538 whole entry) above

Q: Which Kd [1] does the source give for HD5 L29A (peptide) here?
A: The Kd was 3.82 µM.

Q: For human AdV-5 fiber (natural protein), which stoichiometry N [2] is on record?
A: Its stoichiometry N is 3.

Q: What about the stoichiometry N [3] of the same molecule?
A: Its stoichiometry N is 3.

Q: For CC[C@H](C)[C@@H]1NC(=O)[C@H](CCC(=O)O)NC(=O)[C@@H]2CSSC[C@@H]3NC(=O)[C@H](Cc4ccc(O)cc4)NC(=O)[C@@H](NC(=O)[C@@H](NC(=O)[C@H](C)N)[C@@H](C)O)CSSC[C@@H](C(=O)N[C@@H](CCCNC(=N)N)C(=O)O)NC(=O)[C@H](CSSC[C@H](NC(=O)[C@H](CCCNC(=N)N)NC(=O)CNC(=O)[C@H]([C@@H](C)O)NC(=O)[C@H](CCCNC(=N)N)NC3=O)C(=O)N[C@@H](C)C(=O)N[C@@H]([C@@H](C)O)C(=O)N[C@@H](CCCNC(=N)N)C(=O)N[C@@H](CCC(=O)O)C(=O)N[C@@H](CO)C(=O)N[C@@H](CC(C)C)C(=O)N[C@@H](CO)C(=O)NCC(=O)N[C@@H](C(C)C)C(=O)N2)NC(=O)[C@H](C)NC(=O)[C@H](CCCNC(=N)N)NC(=O)[C@H](Cc2ccc(O)cc2)NC(=O)[C@H](CC(C)C)NC(=O)[C@H](CCCNC(=N)N)NC(=O)CNC(=O)[C@H](CO)NC1=O [L29A] (H-ATCYCRTGRCATRESLSGVCEISGRLYRACCR-OH; disulfide 3-31, 5-20, 10-30), which Kd [4] is on record?
A: The Kd was 3.82 ± 0.3 µM.

Q: Which Kd [4] does the source give for CC[C@H](C)[C@@H]1NC(=O)[C@H](CCC(=O)O)NC(=O)[C@@H]2CSSC[C@@H]3NC(=O)[C@H](Cc4ccc(O)cc4)NC(=O)[C@@H](NC(=O)[C@@H](NC(=O)[C@H](C)N)[C@@H](C)O)CSSC[C@@H](C(=O)N[C@@H](CCCNC(=N)N)C(=O)O)NC(=O)[C@H](CSSC[C@H](NC(=O)[C@H](CCCNC(=N)N)NC(=O)CNC(=O)[C@H]([C@@H](C)O)NC(=O)[C@H](CCCNC(=N)N)NC3=O)C(=O)N[C@@H](C)C(=O)N[C@@H]([C@@H](C)O)C(=O)N[C@@H](CCCNC(=N)N)C(=O)N[C@@H](CCC(=O)O)C(=O)N[C@@H](CO)C(=O)N[C@@H](CC(C)C)C(=O)N[C@@H](CO)C(=O)NCC(=O)N[C@@H](C(C)C)C(=O)N2)NC(=O)[C@H](CC(C)C)NC(=O)[C@H](CCCNC(=N)N)NC(=O)[C@H](Cc2ccc(O)cc2)NC(=O)[C@H](CC(C)C)NC(=O)[C@H](CCCNC(=N)N)NC(=O)CNC(=O)[C@H](CO)NC1=O [HD5, human α-defensin 5, reference compound] (H-ATCYCRTGRCATRESLSGVCEISGRLYRLCCR-OH; disulfide 3-31, 5-20, 10-30) here?
A: The Kd was 1.81 ± 0.22 µM.

Q: For HD5 Y27A (peptide), which Kd [1] is on record?
A: Its Kd is 3.39 µM.

Q: Which “Effect of HNP1 mutation on anti-AdV activity (in words)” value [5] does the source give for HNP1 W26A here?
A: Its value is “most deleterious”.

Q: With CC[C@H](C)[C@@H]1NC(=O)[C@H](CCC(=O)O)NC(=O)[C@@H]2CSSC[C@@H]3NC(=O)[C@H](Cc4ccc(O)cc4)NC(=O)[C@@H](NC(=O)[C@@H](NC(=O)[C@H](C)N)[C@@H](C)O)CSSC[C@@H](C(=O)N[C@@H](CCCNC(=N)N)C(=O)O)NC(=O)[C@H](CSSC[C@H](NC(=O)[C@H](CCCNC(=N)N)NC(=O)CNC(=O)[C@H]([C@@H](C)O)NC(=O)[C@H](CCCNC(=N)N)NC3=O)C(=O)N[C@@H](C)C(=O)N[C@@H]([C@@H](C)O)C(=O)N[C@@H](CCCNC(=N)N)C(=O)N[C@@H](CCC(=O)O)C(=O)N[C@@H](CO)C(=O)N[C@@H](CC(C)C)C(=O)N[C@@H](CO)C(=O)NCC(=O)N[C@@H](C(C)C)C(=O)N2)NC(=O)[C@H](CC(C)C)NC(=O)[C@H](CCCNC(=N)N)NC(=O)[C@H](C)NC(=O)[C@H](CC(C)C)NC(=O)[C@H](CCCNC(=N)N)NC(=O)CNC(=O)[C@H](CO)NC1=O [Y27A] (H-ATCYCRTGRCATRESLSGVCEISGRLARLCCR-OH; disulfide 3-31, 5-20, 10-30) as the molecule, how does the Kd [4] read?
A: The Kd was 3.39 ± 0.27 µM.

Q: For human neutrophil peptide 1 [HNP1], which “Ability to neutralize AdV infection compared to HD5 (in words)” value [6] is on record?
A: Its value is “reduced ability to neutralize AdV infection”.

Q: Which stoichiometry N [7] does the source give for “human AdV-5 penton base (natural protein)” here?
A: Its stoichiometry N is 5.

B1: human α-defensin 5 (HD5), wild type (peptide)
chain: ATCYCRTGRCATRESLSGVCEISGRLYRLCCR
Q: For B1, which Kd [1] is on record?
A: The Kd was 1.81 µM.

Q: And the stoichiometry N [1]?
A: Its stoichiometry N is 210.

B2: CAR-Ig: soluble form of the AdV receptor fused to the constant region of rabbit Ig (protein)
chain: LSITTPEEMIEKAKGETAYLPCKFTLSPEDQGPLDIEWLISPADNQKVDQVIILYSGDKIYDDYYPDLKGRVHFTSNDLKSGDASINVTNLQLSDIGTYQCKVKKAPGVANKKIHLVVLVKPSGARCYVDGSEEIGSDFKIKCEPKEGSLPLQYEWQKLSDSQKMPTSWLAEMTSSVISVKNASSEYSGTYSCTVRNRVGSDQCLLRLNVVPPSNK
modifications: left off: Fc (rabbit IgG heavy chain), end not stated, kept
Q: With B2 as the molecule, how does the “Binding to immobilized rPenton (in words)” value [4] read?
A: Its value is “able to bind”.

Q: What about the “Binding to immobilized PB (in words)” value [8] of the same molecule?
A: The value was “unable to bind”.

Q: What about the “Binding to immobilized fiber (in words)” value [9] of the same molecule?
A: The value was “able to bind”.
